The numbers were not newly measured in patent US20190360013, which cites them from elsewhere.

One may read the Kd as the free concentration of one partner at which half of the binding sites on the other are occupied at equilibrium, for simple one-to-one binding.

The test system of this data set is mEcSSB (monomeric E. coli SSB) (Escherichia coli). Conditions: CITED; at ion concentrations optimal for TdT; footprint 65 nt.

As for ssDNA (65-nt footprint), the Kd was less than 1 pM.
